# Measured values published in patent US20240317834A1, “COMPOSITIONS AND METHODS FOR NEUROLOGICAL DISEASES” (CODA BIOTHERAPEUTICS, INC., priority 2020, published 2024).
# Residue numbers refer to the chain shown, from its start. Numbers in names are those of the source.
# B1: CODA282: engineered chimeric LGIC receptor, Y115D in SEQ ID NO: 33 (protein)
# chain: MRCSPGGVWLALAASLLHVSLQGEFQRKLYKELVKNYNPLERPVANDSQPLTVYFSLSLLQIMDVDEKNQVLTTNIWLQMSWTDHYLQWNVSEYPGVKTVRFPDGQIWKPDILLDNSADERFDATFHTNVLVNSSGHCQYLPPGIFKSSCPMDLKNFPMDVQTCKLKFGSWSYGGWSLDLQMQEADISGYIPNGEWDLVGIPGKRSERFYECCKEPYPDVTFTVTMRRRMGYYLIQMYIPSLLIVILSWISFWINMDAAPARVGLGITTVLTMTTQSSGSRASLPKVSYVKAIDIWMAVCLLFVFSALLEYAAVNFVSRQHKELLRFRRKRRHHKSPMLNLFQEDEAGEGRFNFSAYGMGPACLQAKDGISVKGANNSNTTNPPPAPSKSPEEMRKLFIQRAKKIDKISRIGFPMAFLIFNMFYWIIYKIVRREDVHNQ
# modifications: synthetic sequence of chimeric LGIC
# B2: CODA283: engineered chimeric LGIC receptor, Y115E_N379K in SEQ ID NO: 33 (protein)
# chain: B1 chain with D115E, N379K
# modifications: synthetic sequence of chimeric LGIC
# Test system: Lenti-X 293T cells
# Test: YFP fluorescence quenching anion reporter plate reader assay of engineered receptors stimulated with acetylcholine or a non-native ligand
# Type: cell-based
# Details: for percent quench of YFP fluorescence, 10 uM ach: acetylcholine 10 uM; for percent quench of YFP fluorescence, 100 uM ach: acetylcholine 100 uM; for percent quench of YFP fluorescence, 1 mM ach: acetylcholine 1 mM; for percent quench of YFP fluorescence, 3 mM ach: acetylcholine 3 mM
# From the text: To screen these mutant LGICs for those having novel response profiles to ligands, an anion reporter assay was developed to assess the function of the LGICs in a high throughput format. In this assay, cells expressing a YFP reporter whose fluorescence is quenched in the presence of anion are transfected with DNA encoding the channel of interest. Upon exposure to ligand, channels that are activated will flux anion, resulting in a dose-dependent quench of the YFP that can be detected on a plate reader. The greater the quench signal (i.e., the more positive the value), the higher the ligand activity on the receptor is.
# Lenti-X 293T cells (LX293T, Clontech) were maintained in DMEM containing 10% FBS and 1% penicillin/streptomycin (Invitrogen). […] Two days before assay, cells were split at a density of 20,000 cells/well in a 96-well tissue culture plate coated with poly-d lysine (Thermo Scientific). The next day, the cells were transiently transfected with 0.1 μg of DNA per well using standard Fugene protocol (Promega). On the day of assay, cells were washed 2 times in 1× extracellular solution (1×ECS: 140 mM NaCl, 5 mM KCl, 1 mM MgCl2, 2 mM CaCl2), 10 mM HEPES, 10 mM glucose, pH 7.2, mOsms 300). After the last wash, 100 μL of 1×ECS was added to the wells and the plate was incubated at 37° C. for 30 min. While incubating the plate, the drugs were diluted to a 2× concentration in 1×ECS-NaI (same components as 1×ECS except the 140 mM NaCl was replaced by 140 mM NaI). The plates were then read on a Flexstation3 (Molecular Devices). Each well, 8 wells at a time, of the plate is read for 2 min using a Flexstation3 (Molecular Devices) as follows: 1) a baseline YFP fluorescence is read for 17 sec, 2) 100 μL of ligand is added, and 3) the changes in YFP fluorescence are then measured every 1.3 sec for 1 minute and 43 seconds. The percent quench is calculated from the average fluorescence of the last 10 seconds of the read divided by the baseline average of the first 15 seconds prior to the ligand addition.
# FIGS. 1A-1J provide heat maps of the percent quench of YFP fluorescence following stimulation by various doses of either acetylcholine or the non-native ligand as indicated in the Figures. CODA71 (SEQ ID NO: 33) was used as a control, and CODA75 (SEQ ID NO: 29, a non-responding chimeric engineered receptor) was used as the negative control. Quenching of the fluorescence signal, as indicated by blue shaded cells, indicate the level of engineered receptor activation by the non-native ligand at that concentration.
molecule,measurement,setting,value
B1,YFP fluorescence quenching using CNL001,"1 nM CNL001, first column",−15.837%
same,YFP fluorescence quenching using CNL001,"1 nM CNL001, second column",−6.519%
same,YFP fluorescence quenching using TC-5619/Bradanicline,1 nM brd,−0.54%
same,YFP fluorescence quenching using TC-5619/Bradanicline,3 nM brd,−7.22%
same,YFP fluorescence quenching using Varenicline,"3 nM var, first column",2.111
same,YFP fluorescence quenching using Varenicline,"3 nM var, second column",−12.265
same,YFP fluorescence quenching using CNL001,"10 nM CNL001, first column",−4.862%
same,YFP fluorescence quenching using CNL001,"10 nM CNL001, second column",−8.244%
same,YFP fluorescence quenching using TC-5619/Bradanicline,10 nM brd,−2.82%
same,YFP fluorescence quenching using TC-5619/Bradanicline,30 nM brd,−16.67%
same,YFP fluorescence quenching using Facinicline,30 nM fac,10.17
same,YFP fluorescence quenching using Varenicline,"30 nM var, first column",−4.433
same,YFP fluorescence quenching using Varenicline,"30 nM var, second column",−6.153
same,YFP fluorescence quenching using CNL001,"50 nM CNL001, first column",−3.807%
same,YFP fluorescence quenching using CNL001,"50 nM CNL001, second column",−2.871%
same,YFP fluorescence quenching using ABT-126,50 nM abt,−21.22%
same,YFP fluorescence quenching using CNL001,"100 nM CNL001, first column",−7.924%
same,YFP fluorescence quenching using CNL001,"100 nM CNL001, second column",2.11%
same,YFP fluorescence quenching using CNL002,100 nM CNL002,−9.7%
same,YFP fluorescence quenching using ABT-126,100 nM abt,−19.7%
same,YFP fluorescence quenching using AZD-0328,100 nM azd0328,3.19%
same,YFP fluorescence quenching using TC-5619/Bradanicline,100 nM brd,−0.02%
same,YFP fluorescence quenching using Facinicline,100 nM fac,24.77
same,YFP fluorescence quenching using ABT-126,300 nM abt,−15.55%
same,YFP fluorescence quenching using AZD-0328,300 nM azd0328,4.79%
same,YFP fluorescence quenching using TC-5619/Bradanicline,300 nM brd,−12.37%
same,YFP fluorescence quenching using Facinicline,300 nM fac,51.04
same,YFP fluorescence quenching using Varenicline,"300 nM var, first column",−0.861
same,YFP fluorescence quenching using Varenicline,"300 nM var, second column",−1.308
same,YFP fluorescence quenching using Varenicline,"500 nM var, first column",0.733
same,YFP fluorescence quenching using Varenicline,"500 nM var, second column",−4.633
same,YFP fluorescence quenching using CNL001,"1 uM CNL001, first column",11.047%
same,YFP fluorescence quenching using CNL001,"1 uM CNL001, second column",8.04%
same,YFP fluorescence quenching using CNL002,1 uM CNL002,−8.37%
same,YFP fluorescence quenching using ABT-126,1 uM abt,−14.31%
same,YFP fluorescence quenching using TC-5619/Bradanicline,1 uM brd,31.23%
same,YFP fluorescence quenching using TC-6987,1 uM tc6987,13.01
same,YFP fluorescence quenching using Varenicline,"1 uM var, first column",−4.512
same,YFP fluorescence quenching using Varenicline,"1 uM var, second column",0.02
same,YFP fluorescence quenching using Facinicline,10 uM fac,79.76
same,YFP fluorescence quenching using TC-6987,10 uM tc6987,14.73
same,YFP fluorescence quenching using CNL002,30 uM CNL002,3.4%
same,YFP fluorescence quenching using AZD-0328,30 uM azd0328,76.78%
same,YFP fluorescence quenching using Facinicline,30 uM fac,81.7
same,YFP fluorescence quenching using TC-6987,500 uM tc6987,14.29
same,"percent quench of YFP fluorescence, 30 nM TC-6683",TC-6683 30 nM,0.365%
same,"percent quench of YFP fluorescence, 300 nM TC-6683",TC-6683 300 nM,−6.865%
same,"percent quench of YFP fluorescence, 3 uM TC-6683",TC-6683 3 uM,−4.927%
same,"percent quench of YFP fluorescence, 30 uM TC-6683",TC-6683 30 uM,−11.259%
same,"percent quench of YFP fluorescence, 100 uM TC-6683",TC-6683 100 uM,−11.894%
same,"percent quench of YFP fluorescence, 10 uM ach",,6.81%
same,"percent quench of YFP fluorescence, 100 uM ach",,1.19%
same,"percent quench of YFP fluorescence, 1 mM ach",,−14.05%
same,"percent quench of YFP fluorescence, 3 mM ach",,2.37%
B2,YFP fluorescence quenching using CNL001,"1 nM CNL001, first column",−0.713%
same,YFP fluorescence quenching using CNL001,"1 nM CNL001, second column",−0.621%
same,YFP fluorescence quenching using TC-5619/Bradanicline,1 nM brd,0.59%
same,YFP fluorescence quenching using TC-5619/Bradanicline,3 nM brd,−6.41%
same,YFP fluorescence quenching using CNL001,"10 nM CNL001, first column",7.739%
same,YFP fluorescence quenching using CNL001,"10 nM CNL001, second column",15.277%
same,YFP fluorescence quenching using TC-5619/Bradanicline,10 nM brd,−1.58%
same,YFP fluorescence quenching using TC-5619/Bradanicline,30 nM brd,−14.24%
same,YFP fluorescence quenching using Facinicline,30 nM fac,6.39
same,YFP fluorescence quenching using CNL001,"50 nM CNL001, first column",19.489%
same,YFP fluorescence quenching using CNL001,"50 nM CNL001, second column",33.703%
same,YFP fluorescence quenching using ABT-126,50 nM abt,−22.65%
same,YFP fluorescence quenching using CNL001,"100 nM CNL001, first column",56.886%
same,YFP fluorescence quenching using CNL001,"100 nM CNL001, second column",60.171%
same,YFP fluorescence quenching using CNL002,100 nM CNL002,−5.81%
same,YFP fluorescence quenching using ABT-126,100 nM abt,−20.55%
same,YFP fluorescence quenching using AZD-0328,100 nM azd0328,−2.1%
same,YFP fluorescence quenching using TC-5619/Bradanicline,100 nM brd,33.36%
same,YFP fluorescence quenching using ABT-126,300 nM abt,−12.93%
same,YFP fluorescence quenching using AZD-0328,300 nM azd0328,38.2%
same,YFP fluorescence quenching using TC-5619/Bradanicline,300 nM brd,43.81%
same,YFP fluorescence quenching using Facinicline,300 nM fac,78.36
same,YFP fluorescence quenching using CNL001,"1 uM CNL001, first column",69.836%
same,YFP fluorescence quenching using CNL001,"1 uM CNL001, second column",73.855%
same,YFP fluorescence quenching using CNL002,1 uM CNL002,9.69%
same,YFP fluorescence quenching using ABT-126,1 uM abt,1.71%
same,YFP fluorescence quenching using TC-5619/Bradanicline,1 uM brd,75.39%
same,YFP fluorescence quenching using TC-6987,1 uM tc6987,−9.54
same,YFP fluorescence quenching using Facinicline,10 uM fac,81.93
same,YFP fluorescence quenching using TC-6987,10 uM tc6987,−7.06
same,YFP fluorescence quenching using CNL002,30 uM CNL002,−12.85%
same,YFP fluorescence quenching using AZD-0328,30 uM azd0328,79.44%
same,YFP fluorescence quenching using Facinicline,30 uM fac,78.63
same,YFP fluorescence quenching using TC-6987,500 uM tc6987,−15.15
same,"percent quench of YFP fluorescence, 10 uM ach",,−6.16%
same,"percent quench of YFP fluorescence, 100 uM ach",,−11.12%
same,"percent quench of YFP fluorescence, 1 mM ach",,−2.74%
same,"percent quench of YFP fluorescence, 3 mM ach",,53.61%
